Test [1] has as its target superfolder GFP [GFP: P42212]. Nature of the test: MST; sfGFP as the fluorescent antigen, photobody added in a dilution series; before and after photodeprotection (365 nm).
In test [2] the target is superfolder GFP [GFP: P42212]. Nature of the test: not stated; photobody 10, caged or photodeprotected, with purified sfGFP.

Among the data in article PMC7004160 are Kd values, retold here.

Broadly, the Kd is a measure of binding affinity in units of concentration. Higher therefore signals lower affinity. Turning to “anti-GFP NPY-photobody (construct 5), GFP-enhancer nanobody with Y37NPY, caged (VHH)”, in test [1], the Kd worked out at 460 nM.
The same measure, in the same setting: for “anti-GFP ONBY-photobody (construct 4), GFP-enhancer nanobody with Y37ONBY, caged (VHH)” the value was greater than 10000 nM.
As to “anti-GFP minimizer Y113ONBY-photobody (construct 10), caged (VHH)”, the Kd in test [2] is 2280 nM.
